{"source": "patent US20210071139A1", "assay_in_all_cases": "TOX IP-MS, EL4 nuclear extract, MiST", "key": {"Cacybp": {"target": "Cacybp (UniProt Q9CXW3)"}, "Fubp1": {"target": "Fubp1 (UniProt Q91WJ8)", "sequence (Q91WJ8 2-651 limits assumed)": "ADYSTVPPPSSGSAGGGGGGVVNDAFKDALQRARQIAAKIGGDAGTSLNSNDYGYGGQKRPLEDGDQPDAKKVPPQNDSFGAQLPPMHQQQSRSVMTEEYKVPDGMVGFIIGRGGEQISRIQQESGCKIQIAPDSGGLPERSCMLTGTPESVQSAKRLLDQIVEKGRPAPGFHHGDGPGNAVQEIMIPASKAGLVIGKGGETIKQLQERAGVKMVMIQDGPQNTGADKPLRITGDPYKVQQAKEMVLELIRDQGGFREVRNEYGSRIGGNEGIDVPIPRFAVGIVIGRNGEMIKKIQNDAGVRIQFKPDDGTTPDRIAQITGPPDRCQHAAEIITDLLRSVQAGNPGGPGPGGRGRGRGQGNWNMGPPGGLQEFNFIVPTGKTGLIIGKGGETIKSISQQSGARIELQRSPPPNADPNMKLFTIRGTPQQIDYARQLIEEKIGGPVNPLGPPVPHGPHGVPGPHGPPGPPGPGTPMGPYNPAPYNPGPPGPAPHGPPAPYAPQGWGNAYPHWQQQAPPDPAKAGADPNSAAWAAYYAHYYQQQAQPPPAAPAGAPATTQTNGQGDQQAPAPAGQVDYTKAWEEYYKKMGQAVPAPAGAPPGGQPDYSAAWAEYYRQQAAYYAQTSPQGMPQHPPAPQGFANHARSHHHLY"}, "Dnajc9": {"target": "Dnajc9 (UniProt Q91WN1)"}, "Srrt": {"target": "Srrt (UniProt Q99MR6)"}, "Cdadc1": {"target": "Cdadc1 (UniProt Q8BMD5)"}, "Rbm42": {"target": "Rbm42 (UniProt Q91V81)", "sequence (Q91V81 2-478 limits assumed)": "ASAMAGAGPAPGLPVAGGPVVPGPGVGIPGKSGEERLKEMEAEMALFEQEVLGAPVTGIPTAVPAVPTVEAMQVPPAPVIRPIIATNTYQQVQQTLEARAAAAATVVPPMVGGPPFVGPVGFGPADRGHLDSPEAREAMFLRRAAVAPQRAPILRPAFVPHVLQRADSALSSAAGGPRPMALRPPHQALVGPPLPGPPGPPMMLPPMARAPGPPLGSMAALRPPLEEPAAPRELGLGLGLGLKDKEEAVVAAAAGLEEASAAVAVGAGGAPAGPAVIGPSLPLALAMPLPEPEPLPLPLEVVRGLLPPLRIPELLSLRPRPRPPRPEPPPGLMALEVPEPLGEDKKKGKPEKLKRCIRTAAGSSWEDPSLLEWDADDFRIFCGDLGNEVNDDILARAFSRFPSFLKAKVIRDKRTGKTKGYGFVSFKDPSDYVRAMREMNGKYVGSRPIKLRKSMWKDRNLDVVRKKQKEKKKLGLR"}, "Ppa1": {"target": "Ppa1 (UniProt Q9D819)", "sequence (Q9D819 2-289 limits assumed)": "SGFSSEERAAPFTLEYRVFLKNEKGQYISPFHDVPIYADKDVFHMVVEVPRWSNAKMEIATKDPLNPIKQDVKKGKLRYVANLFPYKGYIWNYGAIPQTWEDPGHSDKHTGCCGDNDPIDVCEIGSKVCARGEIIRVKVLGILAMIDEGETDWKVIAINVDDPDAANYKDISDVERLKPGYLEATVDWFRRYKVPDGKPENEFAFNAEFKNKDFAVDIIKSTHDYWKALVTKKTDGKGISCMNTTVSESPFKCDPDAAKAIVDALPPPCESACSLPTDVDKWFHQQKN"}, "Tox4; Tox3": {"target": "Tox4; Tox3"}, "Zwilch": {"target": "Zwilch (UniProt Q8R060)", "sequence (Q8R060 whole entry)": "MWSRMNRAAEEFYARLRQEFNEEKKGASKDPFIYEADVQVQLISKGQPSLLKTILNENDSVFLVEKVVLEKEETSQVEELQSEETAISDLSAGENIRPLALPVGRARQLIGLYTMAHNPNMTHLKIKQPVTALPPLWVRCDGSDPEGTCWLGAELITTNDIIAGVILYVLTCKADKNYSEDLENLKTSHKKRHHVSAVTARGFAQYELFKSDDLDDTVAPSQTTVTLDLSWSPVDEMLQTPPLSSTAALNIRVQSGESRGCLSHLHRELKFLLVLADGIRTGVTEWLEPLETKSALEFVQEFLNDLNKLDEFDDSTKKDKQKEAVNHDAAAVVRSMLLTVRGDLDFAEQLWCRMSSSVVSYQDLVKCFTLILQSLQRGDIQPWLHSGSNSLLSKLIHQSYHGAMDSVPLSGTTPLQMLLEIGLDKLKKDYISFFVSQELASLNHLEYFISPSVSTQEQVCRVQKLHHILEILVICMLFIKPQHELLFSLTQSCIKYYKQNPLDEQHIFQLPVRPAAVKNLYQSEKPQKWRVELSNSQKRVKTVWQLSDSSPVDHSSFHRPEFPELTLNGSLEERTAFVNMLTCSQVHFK"}, "Kntc1": {"target": "Kntc1 (UniProt Q8C3Y4)"}, "Dlst": {"target": "Dlst (UniProt Q9D2G2)"}, "Sdcbp": {"target": "Sdcbp (UniProt O08992)", "sequence (O08992 2-299 limits assumed)": "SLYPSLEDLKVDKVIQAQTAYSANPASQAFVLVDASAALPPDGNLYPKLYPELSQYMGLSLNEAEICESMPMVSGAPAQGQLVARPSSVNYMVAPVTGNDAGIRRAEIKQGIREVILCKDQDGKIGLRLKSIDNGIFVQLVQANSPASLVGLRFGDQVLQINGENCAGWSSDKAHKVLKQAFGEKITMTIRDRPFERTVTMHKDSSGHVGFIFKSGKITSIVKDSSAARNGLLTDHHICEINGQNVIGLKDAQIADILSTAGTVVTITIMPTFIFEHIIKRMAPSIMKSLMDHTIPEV"}, "Meaf6": {"target": "Meaf6 (UniProt Q2VPQ9)"}, "Ikbkap": {"target": "Ikbkap (UniProt Q7TT37)", "sequence (Q7TT37 whole entry)": "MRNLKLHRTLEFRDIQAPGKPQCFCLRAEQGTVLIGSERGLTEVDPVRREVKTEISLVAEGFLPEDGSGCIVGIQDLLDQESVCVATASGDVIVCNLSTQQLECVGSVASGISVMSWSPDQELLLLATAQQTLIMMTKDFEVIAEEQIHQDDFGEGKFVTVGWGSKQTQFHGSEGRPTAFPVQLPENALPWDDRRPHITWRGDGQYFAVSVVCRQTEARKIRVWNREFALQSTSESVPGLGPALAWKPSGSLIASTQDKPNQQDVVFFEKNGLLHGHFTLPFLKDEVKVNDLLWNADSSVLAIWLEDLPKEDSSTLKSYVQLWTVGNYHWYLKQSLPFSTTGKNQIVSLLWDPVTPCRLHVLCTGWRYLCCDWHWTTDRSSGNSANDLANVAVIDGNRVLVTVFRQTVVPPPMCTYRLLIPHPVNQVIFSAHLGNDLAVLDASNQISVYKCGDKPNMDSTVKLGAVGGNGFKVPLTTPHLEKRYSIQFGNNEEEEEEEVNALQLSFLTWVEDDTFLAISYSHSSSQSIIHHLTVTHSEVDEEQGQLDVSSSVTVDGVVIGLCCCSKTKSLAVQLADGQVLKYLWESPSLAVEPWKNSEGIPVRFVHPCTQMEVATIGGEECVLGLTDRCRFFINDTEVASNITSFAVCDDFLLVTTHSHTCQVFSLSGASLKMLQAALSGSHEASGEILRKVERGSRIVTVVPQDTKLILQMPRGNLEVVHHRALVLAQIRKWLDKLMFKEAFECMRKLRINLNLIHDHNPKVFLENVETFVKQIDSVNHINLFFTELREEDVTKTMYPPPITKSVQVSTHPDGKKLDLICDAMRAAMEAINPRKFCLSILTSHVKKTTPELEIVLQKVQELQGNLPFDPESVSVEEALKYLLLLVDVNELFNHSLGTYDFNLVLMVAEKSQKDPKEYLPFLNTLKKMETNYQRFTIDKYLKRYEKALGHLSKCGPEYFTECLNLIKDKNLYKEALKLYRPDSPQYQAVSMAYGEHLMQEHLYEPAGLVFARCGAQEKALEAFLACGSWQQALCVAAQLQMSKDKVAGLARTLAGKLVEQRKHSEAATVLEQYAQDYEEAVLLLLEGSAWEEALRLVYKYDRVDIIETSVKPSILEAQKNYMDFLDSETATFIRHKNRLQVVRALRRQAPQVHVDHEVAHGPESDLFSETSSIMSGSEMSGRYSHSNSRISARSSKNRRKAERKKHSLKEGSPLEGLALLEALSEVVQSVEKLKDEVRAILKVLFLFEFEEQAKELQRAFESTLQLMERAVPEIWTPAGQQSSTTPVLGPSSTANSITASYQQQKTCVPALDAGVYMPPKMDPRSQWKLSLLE"}, "Nusap1": {"target": "Nusap1 (UniProt Q9ERH4)"}, "Cad": {"target": "Cad (UniProt B2RQC6)"}, "Fxr1": {"target": "Fxr1 (UniProt Q61584)"}, "Acad9": {"target": "Acad9 (UniProt Q8JZN5)"}, "Rpl37a": {"target": "Rpl37a (UniProt P61514)"}, "Pusl1": {"target": "Pusl1 (UniProt A2ADA5)"}, "Eif5": {"target": "Eif5 (UniProt P59325)"}, "Mrpl46": {"target": "Mrpl46 (UniProt Q9EQI8)"}, "C1qc": {"target": "C1qc (UniProt Q02105)", "sequence (Q02105 30-246 limits assumed)": "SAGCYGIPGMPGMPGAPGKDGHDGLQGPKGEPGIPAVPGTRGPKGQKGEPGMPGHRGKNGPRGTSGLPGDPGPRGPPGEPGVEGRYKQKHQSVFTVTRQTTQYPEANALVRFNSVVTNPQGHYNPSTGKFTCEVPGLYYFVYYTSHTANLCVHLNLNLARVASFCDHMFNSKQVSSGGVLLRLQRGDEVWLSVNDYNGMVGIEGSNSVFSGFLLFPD"}, "Prrc2a": {"target": "Prrc2a (UniProt Q7TSC1)"}, "Zfp219": {"target": "Zfp219 (UniProt Q6IQX8)"}, "Jade2": {"target": "Jade2 (UniProt Q6ZQF7)"}, "Sap130": {"target": "Sap130 (UniProt Q8BIH0)", "sequence (Q8BIH0 whole entry)": "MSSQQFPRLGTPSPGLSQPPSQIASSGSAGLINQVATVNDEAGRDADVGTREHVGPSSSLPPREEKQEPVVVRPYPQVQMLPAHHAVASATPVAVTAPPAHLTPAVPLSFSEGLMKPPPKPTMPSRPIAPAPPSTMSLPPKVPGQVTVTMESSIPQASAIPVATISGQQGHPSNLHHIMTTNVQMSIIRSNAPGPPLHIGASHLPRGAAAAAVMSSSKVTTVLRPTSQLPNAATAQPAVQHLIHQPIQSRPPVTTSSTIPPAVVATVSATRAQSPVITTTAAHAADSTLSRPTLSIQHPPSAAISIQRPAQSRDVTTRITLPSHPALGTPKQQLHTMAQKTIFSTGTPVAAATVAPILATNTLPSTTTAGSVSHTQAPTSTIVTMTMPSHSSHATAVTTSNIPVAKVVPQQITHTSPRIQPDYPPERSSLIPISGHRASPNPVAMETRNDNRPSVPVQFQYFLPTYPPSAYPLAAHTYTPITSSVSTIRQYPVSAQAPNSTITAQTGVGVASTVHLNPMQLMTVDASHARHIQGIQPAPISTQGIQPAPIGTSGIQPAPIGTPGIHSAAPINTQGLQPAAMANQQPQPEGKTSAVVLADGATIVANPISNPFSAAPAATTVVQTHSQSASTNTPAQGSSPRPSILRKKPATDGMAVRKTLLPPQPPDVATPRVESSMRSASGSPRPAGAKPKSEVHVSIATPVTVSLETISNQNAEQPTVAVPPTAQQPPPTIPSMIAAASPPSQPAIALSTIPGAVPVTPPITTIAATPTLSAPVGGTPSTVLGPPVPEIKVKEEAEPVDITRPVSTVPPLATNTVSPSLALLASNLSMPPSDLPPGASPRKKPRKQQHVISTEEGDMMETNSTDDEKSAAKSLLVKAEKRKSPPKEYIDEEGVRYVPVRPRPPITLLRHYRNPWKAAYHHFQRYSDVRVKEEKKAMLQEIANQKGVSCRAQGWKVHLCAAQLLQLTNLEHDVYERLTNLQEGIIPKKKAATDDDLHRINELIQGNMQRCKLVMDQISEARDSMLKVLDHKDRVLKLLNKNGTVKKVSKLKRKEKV"}, "Ccar1": {"target": "Ccar1 (UniProt Q8CH18)"}}, "data": [{"substance": "Tox (from UniProt Q66JW3 1-526)", "values": [{"measurement": "Abundance", "setting": "Cacybp", "result": "3.38e-05"}, {"measurement": "MiST Score", "setting": "Cacybp", "result": 0.944}, {"measurement": "Reproducibility", "setting": "Cacybp", "result": 0.837}, {"measurement": "Specificity", "setting": "Cacybp", "result": 1}, {"measurement": "Abundance", "setting": "Fubp1", "result": "4.54e-06"}, {"measurement": "MiST Score", "setting": "Fubp1", "result": 0.984}, {"measurement": "Reproducibility", "setting": "Fubp1", "result": 0.966}, {"measurement": "Specificity", "setting": "Fubp1", "result": 1}, {"measurement": "Abundance", "setting": "Dnajc9", "result": "5.16e-05"}, {"measurement": "MiST Score", "setting": "Dnajc9", "result": 0.961}, {"measurement": "Reproducibility", "setting": "Dnajc9", "result": 0.892}, {"measurement": "Specificity", "setting": "Dnajc9", "result": 1}, {"measurement": "Abundance", "setting": "Srrt", "result": "2.3e-06"}, {"measurement": "MiST Score", "setting": "Srrt", "result": 0.913}, {"measurement": "Reproducibility", "setting": "Srrt", "result": 0.953}, {"measurement": "Specificity", "setting": "Srrt", "result": 0.903}, {"measurement": "Abundance", "setting": "Cdadc1", "result": 0.00034}, {"measurement": "MiST Score", "setting": "Cdadc1", "result": 0.95}, {"measurement": "Reproducibility", "setting": "Cdadc1", "result": 0.882}, {"measurement": "Specificity", "setting": "Cdadc1", "result": 0.988}, {"measurement": "Abundance", "setting": "Rbm42", "result": "9.15e-06"}, {"measurement": "MiST Score", "setting": "Rbm42", "result": 0.969}, {"measurement": "Reproducibility", "setting": "Rbm42", "result": 0.919}, {"measurement": "Specificity", "setting": "Rbm42", "result": 1}, {"measurement": "Abundance", "setting": "Ppa1", "result": "8.43e-06"}, {"measurement": "MiST Score", "setting": "Ppa1", "result": 0.994}, {"measurement": "Reproducibility", "setting": "Ppa1", "result": 0.999}, {"measurement": "Specificity", "setting": "Ppa1", "result": 1}, {"measurement": "Abundance", "setting": "Tox4; Tox3", "result": "1.98e-05"}, {"measurement": "MiST Score", "setting": "Tox4; Tox3", "result": 0.936}, {"measurement": "Reproducibility", "setting": "Tox4; Tox3", "result": 0.812}, {"measurement": "Specificity", "setting": "Tox4; Tox3", "result": 1}, {"measurement": "Abundance", "setting": "Zwilch", "result": "6.62e-05"}, {"measurement": "MiST Score", "setting": "Zwilch", "result": 0.895}, {"measurement": "Reproducibility", "setting": "Zwilch", "result": 0.729}, {"measurement": "Specificity", "setting": "Zwilch", "result": 0.978}, {"measurement": "Abundance", "setting": "Kntc1", "result": "2.82e-06"}, {"measurement": "MiST Score", "setting": "Kntc1", "result": 0.897}, {"measurement": "Reproducibility", "setting": "Kntc1", "result": 0.686}, {"measurement": "Specificity", "setting": "Kntc1", "result": 1}, {"measurement": "Abundance", "setting": "Dlst", "result": 0.000104}, {"measurement": "MiST Score", "setting": "Dlst", "result": 0.934}, {"measurement": "Reproducibility", "setting": "Dlst", "result": 0.941}, {"measurement": "Specificity", "setting": "Dlst", "result": 0.938}, {"measurement": "Abundance", "setting": "Sdcbp", "result": "5.96e-05"}, {"measurement": "MiST Score", "setting": "Sdcbp", "result": 0.957}, {"measurement": "Reproducibility", "setting": "Sdcbp", "result": 0.88}, {"measurement": "Specificity", "setting": "Sdcbp", "result": 1}, {"measurement": "Abundance", "setting": "Meaf6", "result": "5.46e-05"}, {"measurement": "MiST Score", "setting": "Meaf6", "result": 0.968}, {"measurement": "Reproducibility", "setting": "Meaf6", "result": 0.916}, {"measurement": "Specificity", "setting": "Meaf6", "result": 1}, {"measurement": "Abundance", "setting": "Ikbkap", "result": "1.13e-06"}, {"measurement": "MiST Score", "setting": "Ikbkap", "result": 0.913}, {"measurement": "Reproducibility", "setting": "Ikbkap", "result": 0.737}, {"measurement": "Specificity", "setting": "Ikbkap", "result": 1}, {"measurement": "Abundance", "setting": "Nusap1", "result": "2.24e-05"}, {"measurement": "MiST Score", "setting": "Nusap1", "result": 0.899}, {"measurement": "Reproducibility", "setting": "Nusap1", "result": 0.966}, {"measurement": "Specificity", "setting": "Nusap1", "result": 0.877}, {"measurement": "Abundance", "setting": "Cad", "result": "2.65e-07"}, {"measurement": "MiST Score", "setting": "Cad", "result": 0.906}, {"measurement": "Reproducibility", "setting": "Cad", "result": 0.714}, {"measurement": "Specificity", "setting": "Cad", "result": 1}, {"measurement": "Abundance", "setting": "Fxr1", "result": "1.59e-05"}, {"measurement": "MiST Score", "setting": "Fxr1", "result": 0.915}, {"measurement": "Reproducibility", "setting": "Fxr1", "result": 0.924}, {"measurement": "Specificity", "setting": "Fxr1", "result": 0.919}, {"measurement": "Abundance", "setting": "Acad9", "result": "7.35e-06"}, {"measurement": "MiST Score", "setting": "Acad9", "result": 0.919}, {"measurement": "Reproducibility", "setting": "Acad9", "result": 0.846}, {"measurement": "Specificity", "setting": "Acad9", "result": 0.959}, {"measurement": "Abundance", "setting": "Rpl37a", "result": 0.00127}, {"measurement": "MiST Score", "setting": "Rpl37a", "result": 0.911}, {"measurement": "Reproducibility", "setting": "Rpl37a", "result": 0.731}, {"measurement": "Specificity", "setting": "Rpl37a", "result": 1}, {"measurement": "Abundance", "setting": "Pusl1", "result": "1.19e-05"}, {"measurement": "MiST Score", "setting": "Pusl1", "result": 0.925}, {"measurement": "Reproducibility", "setting": "Pusl1", "result": 0.776}, {"measurement": "Specificity", "setting": "Pusl1", "result": 1}, {"measurement": "Abundance", "setting": "Eif5", "result": "1.08e-05"}, {"measurement": "MiST Score", "setting": "Eif5", "result": 0.985}, {"measurement": "Reproducibility", "setting": "Eif5", "result": 0.971}, {"measurement": "Specificity", "setting": "Eif5", "result": 1}, {"measurement": "Abundance", "setting": "Mrpl46", "result": "3.3e-05"}, {"measurement": "MiST Score", "setting": "Mrpl46", "result": 0.982}, {"measurement": "Reproducibility", "setting": "Mrpl46", "result": 0.962}, {"measurement": "Specificity", "setting": "Mrpl46", "result": 1}, {"measurement": "Abundance", "setting": "C1qc", "result": 0.000821}, {"measurement": "MiST Score", "setting": "C1qc", "result": 0.976}, {"measurement": "Reproducibility", "setting": "C1qc", "result": 0.943}, {"measurement": "Specificity", "setting": "C1qc", "result": 1}, {"measurement": "Abundance", "setting": "Prrc2a", "result": "7.11e-07"}, {"measurement": "MiST Score", "setting": "Prrc2a", "result": 0.916}, {"measurement": "Reproducibility", "setting": "Prrc2a", "result": 0.862}, {"measurement": "Specificity", "setting": "Prrc2a", "result": 0.948}, {"measurement": "Abundance", "setting": "Zfp219", "result": "8.26e-06"}, {"measurement": "MiST Score", "setting": "Zfp219", "result": 0.902}, {"measurement": "Reproducibility", "setting": "Zfp219", "result": 0.836}, {"measurement": "Specificity", "setting": "Zfp219", "result": 0.94}, {"measurement": "Abundance", "setting": "Jade2", "result": "4.26e-06"}, {"measurement": "MiST Score", "setting": "Jade2", "result": 0.937}, {"measurement": "Reproducibility", "setting": "Jade2", "result": 0.815}, {"measurement": "Specificity", "setting": "Jade2", "result": 1}, {"measurement": "Abundance", "setting": "Sap130", "result": "5.37e-06"}, {"measurement": "MiST Score", "setting": "Sap130", "result": 0.971}, {"measurement": "Reproducibility", "setting": "Sap130", "result": 0.926}, {"measurement": "Specificity", "setting": "Sap130", "result": 1}, {"measurement": "Abundance", "setting": "Ccar1", "result": "1.49e-06"}, {"measurement": "MiST Score", "setting": "Ccar1", "result": 0.962}, {"measurement": "Reproducibility", "setting": "Ccar1", "result": 0.897}, {"measurement": "Specificity", "setting": "Ccar1", "result": 1}]}]}
